Results taken from the supplement of paper PMC9170038.

System: MS2 coat protein
Assay: apparent KD of MS2 coat protein; designed switch direction (-1 OFF switch, 1 ON switch): -1; higher = weaker reporter binding
Summary of the method: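 Stalled E. coli RNA polymerase transcribed designed RNA switches on Illumina chips, which were then titrated with SNAP-549-labelled MS2 coat protein, doubling from 0.7 or 1.5 nM to 3 µM. Steps lasted from 0.8–1.5 h at the lowest concentration to 10–20 min at the highest. The apparent KD is each design's median over clusters of curve-fitted normalised fluorescence.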

[1] = input ligand: microRNA oligo, concentration not stated
[2] = Eterna round: R95, input ligand: FMN 200 uM
[3] = Eterna round: R95, input ligand: microRNA oligo, concentration not stated
[4] = Eterna round: R95, input ligand: none

Row | Sequence | apparent KD of MS2 coat protein [1] [nM] | apparent KD of MS2 coat protein [2] [nM] | apparent KD of MS2 coat protein [3] [nM] | apparent KD of MS2 coat protein [4] [nM] | apparent KD of MS2 coat protein (input ligand: FMN 200 uM) [nM] | apparent KD of MS2 coat protein (input ligand: none) [nM]
1 | UUGUUGUAUGUAGGAUAUGCAUAUUAUUAUUAUGCAGAAGGACAUGAGGAUCACCCAUGUAUGUUAUUAUUAUAUGUUAUGUGU [Title] (Eterna round: R96, puzzle: Exclusion NG 1) | 32 | – | – | – | – | –
2 | UUGUUGUAUGUAGGAUAUGCAUAUUAUUAUUAUGCAGAAGGACAUGAGGAUCACCCAUGUAUGUUAUUAUUAUGUGUUAUGUGU [Title] (Eterna round: R96, puzzle: Exclusion NG 1) | 33.9 | – | – | – | – | –
3 | UUUAAAAUUUCAAUCUUCGCUGGCAAACUUGCGCCAGCUACAUGAGGAUCACCCAUGUUUUUUGCCCGUCUUAUUCU [Inisti] (puzzle: Sensor v3, turn-off variant 2) | – | 24.3 | 170 | 26.7 | – | –
4 | UUUAACAAGCCAGAUCCUCACAUGAGGAUCACCCAUGUGCUCGUCUGAUUUUGUACUAUCACGUUUGUGAUAGUGUU [Level Boss var2-07] (puzzle: Sensor v3, turn-off variant 1) | – | 240 | 19.1 | 124 | – | –
5 | UUUAACAAGCCAGAUCCUCACAUGAGGAUCACCCAUGUGCUCGUCUGAUUUUGUACUAUCAUGUGAGUGAUAGUGUU [Level Boss var2-06] (Eterna round: R96, puzzle: Sensor v3, turn-off variant 1) | 56.9 | – | – | – | 200 | 205
6 | UUUAACAAGCCAGAUCCUCACAUGAGGAUCACCCAUGUGCUCGUCUGAUUUUGUACUAUCAUGUGAGUGAUAGUGUU [Level Boss var2-06] (puzzle: Sensor v3, turn-off variant 1) | – | 67.3 | 24.7 | 115 | – | –
7 | UUUAACAGAGGAUAUGCGAAUAAAUAAAACUUUUUUUUUUAACAUGAGGAUCACCCAUGUAGAAGGCUGAUAUU [Ex2 #23] (Eterna round: R97, puzzle: Exclusion 2) | – | – | – | – | 34.9 | 29.9
8 | UUUAACGAUGAGGAUAUAUGAUAUCAAAGCAUCAUAGAAGGCAUCACAUGAGGAUCACCCAUGUGAUCUUCUUU [Mat - Exclusion 6 - JL Mod - D29] (Eterna round: R97, puzzle: Exclusion 6) | – | – | – | – | 69.6 | 16.6
9 | UUUAAGGGAAUUAAGAUCACAUGAGGAUCACCCAUGUAUAUAUAGGAUAUCAGCUCGUGUAGAGCUGAGAAGGAUAUAUACAUA [ExNG3/6-A3] (Eterna round: R96, puzzle: Exclusion NG 3) | 32.8 | – | – | – | 101 | 132
10 | UUUAAUUGUGACAUGGGUGACAUGAGGAUCACCCAUGUCACAAGCUUUUUGCUCGUCUUAUAAUUAACCCAUGUCAC [Stov1/13-A1] (Eterna round: R97, puzzle: Sensor, turn-off variant 1) | – | – | – | – | 25.6 | 27.7
11 | UUUAAUUUUUUUUUUUUACAAGCUUUUUGCUCGUCUUAUACAUGAGGAUCACCCAUGUGGGUAGAAGAUAAAUUAUC [JMF 6] (puzzle: Sensor v3, turn-off variant 2) | – | 46.4 | 81.8 | 37.4 | – | –
12 | UUUAAUUUUUUUUUUUUACAAGCUUUUUGCUCGUCUUAUACAUGAGGAUCACCCAUGUGGGUGAAGGAUAAAUUAUC [JMF 26] (puzzle: Sensor v3, turn-off variant 2) | – | 35.6 | 36.2 | 34.3 | – | –
13 | UUUAAUUUUUUUUUUUUACAAGCUUUUUGCUCGUCUUAUACAUGAGGAUCACCCAUGUGGGUGAGAAGUAAAUUAUC [JMF 48] (puzzle: Sensor v3, turn-off variant 2) | – | 63.7 | 14.6 | 224 | – | –
14 | UUUAAUUUUUUUUUUUUACAAGCUUUUUGCUCGUCUUAUACAUGAGGAUCACCCAUGUGGGUGGGAGAUAAAUUAUC [JMF 24] (puzzle: Sensor v3, turn-off variant 2) | – | 88.6 | 59.3 | 341 | – | –
15 | UUUAGUAUCUAGGAUAUCUAGUACAUAGUAUCUAGAGAAGGAGAUACAUGAGGAUCACCCAUGUUCUGUGAUCU [Exclusion 6 - 2:b] (puzzle: Exclusion 6) | – | – | 118 | – | – | –
16 | UUUAGUUCAGGAUAUGUAGAAAUUAACAUGAGGAUCACCCAUGUAGAUCCUGAAUUAACUACAGAAGGGAACAUUU [JL-ex5-4.43 Brourd mod] (Eterna round: R97, puzzle: Exclusion 5) | – | – | – | – | 51.3 | 15.7
17 | UUUAGUUCAGGAUAUGUAGAUUUUAACAUGAGGAUCACCCAUGUAGAUCCUGAAUUAACUACAGAAGGGAACAUUA [Exclusion 5: 2:d] (Eterna round: R96, puzzle: Exclusion 5) | 20.3 | – | – | – | 81.1 | 24.7
18 | UUUAGUUCAGGAUAUGUAGAUUUUAACAUGAGGAUCACCCAUGUAGAUCCUGAAUUAACUACAGAAGGGAACAUUA [Exclusion 5: 2:d] (puzzle: Exclusion 5) | – | – | 19.4 | – | – | –
19 | UUUAGUUCAGGAUAUGUAGAUUUUAACAUGAGGAUCACCCAUGUAGAUCCUGAUCCUGCUACAGAAGGGAAGAUUU [Mat - Exclusion 5 - Eli Mod - D7] (Eterna round: R97, puzzle: Exclusion 5) | – | – | – | – | 22.3 | 23.9
20 | UUUAUAAUUUCAAUCUUCGCCAGCAAACUAACACUGGCCACAUGAGGAUCACCCAUGUUUUUUGUUCGUUUUAUUCU [Cesoorso] (puzzle: Sensor v3, turn-off variant 2) | – | 21.6 | 62.9 | 23.3 | – | –
21 | UUUAUAUAGUAAGGAUAUGUAUUAUUUUUUACAACAGAAGGUACUGACAUGAGGAUCACCCAUGUUUUAGUGUGGGCAUGUAGU [JMF's solution 100] (Eterna round: R96, puzzle: Exclusion NG 1) | 217 | – | – | – | – | –
22 | UUUCAACAUGAGGAUCACCCAUGUGAGGAUAUGAUGCAGCAGUGGUCUACGCUGUGCAUCAGAAGGCACAUGUG (puzzle: Exclusion 1) | – | – | 130 | – | – | –
23 | UUUCAACGGUAGGAUAUCGAGACUACGACUAGCCGAGAAGGGCCGACAUGAGGAUCACCCAUGUGCCUCACCCG [Eternabot (L1) Solution 56] (Eterna round: R97, puzzle: Exclusion 6) | – | – | – | – | 22.9 | 23.9
